Source: patent publication US10077319B2, “Anti-PCSK9-GLP-1 fusions and methods for use” (MedImmune, LLC, priority 2014, dated 2018)

Biological target: human GLP-1 receptor (Homo sapiens, UniProt P43220)
Assay: cAMP production assay in CHO cells expressing human GLP-1 receptor
Format: cell-based
Settings: Table 13; EC50 relative to GLP1-Fc
Method: Low protein binding 384-well plates (Greiner) were used to perform eleven 1 in 4 serial dilutions of test compound that were made in assay medium (0.1% bovine serum albumin in Hanks Balanced Salt Solution (GIBCO or Sigma), containing 0.5 mM IBMX (Sigma)). All sample dilutions were made in duplicate. […] Cells were then re-suspended in assay buffer at the optimized concentration of 1×10^5 cells/mL and dispensed at 5 uL per well to black shallow-well u-bottom 384-well plates (Corning). 5 μL of test compound was transferred from the dilution plate to the cell plate and incubated at room temperature for 30 minutes. cAMP levels were measured the cAMP dynamic 2 HTRF kit (Cisbio), following the two step protocol as per manufacturer's recommendations. Briefly, anti-cAMP cryptate (donor fluorophore) and cAMP-d2 (acceptor fluorophore) were made up separately by diluting each 1/20 in conjugate & lysis buffer provided in the kit. 5 uL of anti-cAMP cryptate was added to all wells of the assay plate and 5 uL of cAMP-d2 added to all wells except non-specific binding wells, to which only conjugate and lysis buffer was added. […] Data was transformed to % Delta F as described in manufacturer's guidelines and analyzed by unconstrained 4-parameter logistic fit of data, curve mid-point to determine EC50.

Chain of human GLP-1 receptor (P43220 24-463): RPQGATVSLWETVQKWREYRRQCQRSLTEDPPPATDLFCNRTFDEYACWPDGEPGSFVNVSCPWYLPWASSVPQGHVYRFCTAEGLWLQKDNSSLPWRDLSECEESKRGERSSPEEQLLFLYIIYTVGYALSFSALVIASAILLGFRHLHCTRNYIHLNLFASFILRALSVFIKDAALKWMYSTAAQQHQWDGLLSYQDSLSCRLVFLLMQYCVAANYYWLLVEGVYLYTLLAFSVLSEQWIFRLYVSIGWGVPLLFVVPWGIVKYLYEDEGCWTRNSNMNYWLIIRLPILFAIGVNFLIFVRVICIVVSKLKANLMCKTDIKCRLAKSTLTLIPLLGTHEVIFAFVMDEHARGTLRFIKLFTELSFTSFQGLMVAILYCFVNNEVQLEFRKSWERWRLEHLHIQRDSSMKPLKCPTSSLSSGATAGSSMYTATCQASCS

| Molecule | x change |
| --- | --- |
| PC9#2_GLP-1_VL: GLP-1 analogue SEQ ID NO:28 fused via linker SEQ ID NO:4 to light chain of PC9#2 (SEQ ID NO: 43) (protein, heavy chain not cited) HGEGTFTSDVSSYLEEQAAKEFIAWLVKGGGGGGGSGGGGSGGGGSADIQMTQSPSSLSASVGDRVTITCKASQDVHTAVAWYQQKPGKAPKLLIYHASYRYTGVPSRFSGSGSGTDFTFTISSLQPEDIATYYCQQRYSLWRTFGQGTKLEIKR | 2.4 |

Same assay, conditions: Table 18

| Molecule | Potency at huGLP-1R in cAMP assay (M) |
| --- | --- |
| HS9_DSB7_L26S: HS9_DSB7 with peptide point mutation L26S; SEQ ID NO: 462 (protein) HGEGTFTSDLSKQMEEECVRLFIEWSKNGGPSSGAPPPGCGGGGGSGGGGSGGGGSADIQMTQSPSSLSASVGDRVTITCQASQDVKTAVAWYQQKPGKAPKLLIYSASYRYTGVPSRFSGSGSGTDFTFTISSLQPEDIATYYCQQRYSLWRTFGQGTKLEIK | Inactive |
| HS9_DSB7_I23S: HS9_DSB7 with peptide point mutation I23S; SEQ ID NO: 458 (protein) HGEGTFTSDLSKQMEEECVRLFSEWLKNGGPSSGAPPPGCGGGGGSGGGGSGGGGSADIQMTQSPSSLSASVGDRVTITCQASQDVKTAVAWYQQKPGKAPKLLIYSASYRYTGVPSRFSGSGSGTDFTFTISSLQPEDIATYYCQQRYSLWRTFGQGTKLEIK | Inactive |
| HS9_DSB7_I23T: HS9_DSB7 with peptide point mutation I23T; SEQ ID NO: 457 (protein) HGEGTFTSDLSKQMEEECVRLFTEWLKNGGPSSGAPPPGCGGGGGSGGGGSGGGGSADIQMTQSPSSLSASVGDRVTITCQASQDVKTAVAWYQQKPGKAPKLLIYSASYRYTGVPSRFSGSGSGTDFTFTISSLQPEDIATYYCQQRYSLWRTFGQGTKLEIK | Inactive |

Same assay, conditions: Table 18; maximum activation compared to GLP-1

| Molecule | % Max Effect |
| --- | --- |
| HS9_DSB7_G2Y: HS9_DSB7 with peptide point mutation G2Y; SEQ ID NO: 444 (protein) HYEGTFTSDLSKQMEEECVRLFIEWLKNGGPSSGAPPPGCGGGGGSGGGGSGGGGSADIQMTQSPSSLSASVGDRVTITCQASQDVKTAVAWYQQKPGKAPKLLIYSASYRYTGVPSRFSGSGSGTDFTFTISSLQPEDIATYYCQQRYSLWRTFGQGTKLEIK | 10% |
| HS9_DSB7_L26S: HS9_DSB7 with peptide point mutation L26S; SEQ ID NO: 462 (protein) HGEGTFTSDLSKQMEEECVRLFIEWSKNGGPSSGAPPPGCGGGGGSGGGGSGGGGSADIQMTQSPSSLSASVGDRVTITCQASQDVKTAVAWYQQKPGKAPKLLIYSASYRYTGVPSRFSGSGSGTDFTFTISSLQPEDIATYYCQQRYSLWRTFGQGTKLEIK | Inactive |
| HS9_DSB7_G2I: HS9_DSB7 with peptide point mutation G2I; SEQ ID NO: 449 (protein) HIEGTFTSDLSKQMEEECVRLFIEWLKNGGPSSGAPPPGCGGGGGSGGGGSGGGGSADIQMTQSPSSLSASVGDRVTITCQASQDVKTAVAWYQQKPGKAPKLLIYSASYRYTGVPSRFSGSGSGTDFTFTISSLQPEDIATYYCQQRYSLWRTFGQGTKLEIK | 87% |
| HS9_DSB7_G2Q: HS9_DSB7 with peptide point mutation G2Q; SEQ ID NO: 447 (protein) HQEGTFTSDLSKQMEEECVRLFIEWLKNGGPSSGAPPPGCGGGGGSGGGGSGGGGSADIQMTQSPSSLSASVGDRVTITCQASQDVKTAVAWYQQKPGKAPKLLIYSASYRYTGVPSRFSGSGSGTDFTFTISSLQPEDIATYYCQQRYSLWRTFGQGTKLEIK | 86% |
| HS9_DSB7_V19T: HS9_DSB7 with peptide point mutation V19T; SEQ ID NO: 453 (protein) HGEGTFTSDLSKQMEEECTRLFIEWLKNGGPSSGAPPPGCGGGGGSGGGGSGGGGSADIQMTQSPSSLSASVGDRVTITCQASQDVKTAVAWYQQKPGKAPKLLIYSASYRYTGVPSRFSGSGSGTDFTFTISSLQPEDIATYYCQQRYSLWRTFGQGTKLEIK | 95% |
| HS9_DSB7_V19G: HS9_DSB7 with peptide point mutation V19G; SEQ ID NO: 455 (protein) HGEGTFTSDLSKQMEEECGRLFIEWLKNGGPSSGAPPPGCGGGGGSGGGGSGGGGSADIQMTQSPSSLSASVGDRVTITCQASQDVKTAVAWYQQKPGKAPKLLIYSASYRYTGVPSRFSGSGSGTDFTFTISSLQPEDIATYYCQQRYSLWRTFGQGTKLEIK | 93% |
| HS9_DSB7_G2N: HS9_DSB7 with peptide point mutation G2N; SEQ ID NO: 448 (protein) HNEGTFTSDLSKQMEEECVRLFIEWLKNGGPSSGAPPPGCGGGGGSGGGGSGGGGSADIQMTQSPSSLSASVGDRVTITCQASQDVKTAVAWYQQKPGKAPKLLIYSASYRYTGVPSRFSGSGSGTDFTFTISSLQPEDIATYYCQQRYSLWRTFGQGTKLEIK | 31% |
| HS9_DSB7_L26M: HS9_DSB7 with peptide point mutation L26M; SEQ ID NO: 466 (protein) HGEGTFTSDLSKQMEEECVRLFIEWMKNGGPSSGAPPPGCGGGGGSGGGGSGGGGSADIQMTQSPSSLSASVGDRVTITCQASQDVKTAVAWYQQKPGKAPKLLIYSASYRYTGVPSRFSGSGSGTDFTFTISSLQPEDIATYYCQQRYSLWRTFGQGTKLEIK | 90% |
| HS9_DSB7_L26N: HS9_DSB7 with peptide point mutation L26N; SEQ ID NO: 464 (protein) HGEGTFTSDLSKQMEEECVRLFIEWNKNGGPSSGAPPPGCGGGGGSGGGGSGGGGSADIQMTQSPSSLSASVGDRVTITCQASQDVKTAVAWYQQKPGKAPKLLIYSASYRYTGVPSRFSGSGSGTDFTFTISSLQPEDIATYYCQQRYSLWRTFGQGTKLEIK | 44% |
| HS9_DSB7_I23G: HS9_DSB7 with peptide point mutation I23G; SEQ ID NO: 459 (protein) HGEGTFTSDLSKQMEEECVRLFGEWLKNGGPSSGAPPPGCGGGGGSGGGGSGGGGSADIQMTQSPSSLSASVGDRVTITCQASQDVKTAVAWYQQKPGKAPKLLIYSASYRYTGVPSRFSGSGSGTDFTFTISSLQPEDIATYYCQQRYSLWRTFGQGTKLEIK | 82% |
| HS9_DSB7_V19S: HS9_DSB7 with peptide point mutation V19S; SEQ ID NO: 454 (protein) HGEGTFTSDLSKQMEEECSRLFIEWLKNGGPSSGAPPPGCGGGGGSGGGGSGGGGSADIQMTQSPSSLSASVGDRVTITCQASQDVKTAVAWYQQKPGKAPKLLIYSASYRYTGVPSRFSGSGSGTDFTFTISSLQPEDIATYYCQQRYSLWRTFGQGTKLEIK | 94% |
| HS9_DSB7_L26H: HS9_DSB7 with peptide point mutation L26H; SEQ ID NO: 468 (protein) HGEGTFTSDLSKQMEEECVRLFIEWHKNGGPSSGAPPPGCGGGGGSGGGGSGGGGSADIQMTQSPSSLSASVGDRVTITCQASQDVKTAVAWYQQKPGKAPKLLIYSASYRYTGVPSRFSGSGSGTDFTFTISSLQPEDIATYYCQQRYSLWRTFGQGTKLEIK | 87% |
| HS9_DSB7_I23S: HS9_DSB7 with peptide point mutation I23S; SEQ ID NO: 458 (protein) HGEGTFTSDLSKQMEEECVRLFSEWLKNGGPSSGAPPPGCGGGGGSGGGGSGGGGSADIQMTQSPSSLSASVGDRVTITCQASQDVKTAVAWYQQKPGKAPKLLIYSASYRYTGVPSRFSGSGSGTDFTFTISSLQPEDIATYYCQQRYSLWRTFGQGTKLEIK | Inactive |
| HS9_DSB7_L26T: HS9_DSB7 with peptide point mutation L26T; SEQ ID NO: 461 (protein) HGEGTFTSDLSKQMEEECVRLFIEWTKNGGPSSGAPPPGCGGGGGSGGGGSGGGGSADIQMTQSPSSLSASVGDRVTITCQASQDVKTAVAWYQQKPGKAPKLLIYSASYRYTGVPSRFSGSGSGTDFTFTISSLQPEDIATYYCQQRYSLWRTFGQGTKLEIK | 87% |
| HS9_DSB7_I23T: HS9_DSB7 with peptide point mutation I23T; SEQ ID NO: 457 (protein) HGEGTFTSDLSKQMEEECVRLFTEWLKNGGPSSGAPPPGCGGGGGSGGGGSGGGGSADIQMTQSPSSLSASVGDRVTITCQASQDVKTAVAWYQQKPGKAPKLLIYSASYRYTGVPSRFSGSGSGTDFTFTISSLQPEDIATYYCQQRYSLWRTFGQGTKLEIK | Inactive |
| HS9_DSB7_G2F: HS9_DSB7 with peptide point mutation G2F; SEQ ID NO: 450 (protein) HFEGTFTSDLSKQMEEECVRLFIEWLKNGGPSSGAPPPGCGGGGGSGGGGSGGGGSADIQMTQSPSSLSASVGDRVTITCQASQDVKTAVAWYQQKPGKAPKLLIYSASYRYTGVPSRFSGSGSGTDFTFTISSLQPEDIATYYCQQRYSLWRTFGQGTKLEIK | 69% |
| HS9_DSB7_L26P: HS9_DSB7 with peptide point mutation L26P; SEQ ID NO: 463 (protein) HGEGTFTSDLSKQMEEECVRLFIEWPKNGGPSSGAPPPGCGGGGGSGGGGSGGGGSADIQMTQSPSSLSASVGDRVTITCQASQDVKTAVAWYQQKPGKAPKLLIYSASYRYTGVPSRFSGSGSGTDFTFTISSLQPEDIATYYCQQRYSLWRTFGQGTKLEIK | 60% |
| HS9_DSB7_I23A: HS9_DSB7 with peptide point mutation I23A; SEQ ID NO: 460 (protein) HGEGTFTSDLSKQMEEECVRLFAEWLKNGGPSSGAPPPGCGGGGGSGGGGSGGGGSADIQMTQSPSSLSASVGDRVTITCQASQDVKTAVAWYQQKPGKAPKLLIYSASYRYTGVPSRFSGSGSGTDFTFTISSLQPEDIATYYCQQRYSLWRTFGQGTKLEIK | 67% |
| HS9_DSB7_G2T: HS9_DSB7 with peptide point mutation G2T; SEQ ID NO: 446 (protein) HTEGTFTSDLSKQMEEECVRLFIEWLKNGGPSSGAPPPGCGGGGGSGGGGSGGGGSADIQMTQSPSSLSASVGDRVTITCQASQDVKTAVAWYQQKPGKAPKLLIYSASYRYTGVPSRFSGSGSGTDFTFTISSLQPEDIATYYCQQRYSLWRTFGQGTKLEIK | 73% |
| HS9_DSB7_L26Q: HS9_DSB7 with peptide point mutation L26Q; SEQ ID NO: 465 (protein) HGEGTFTSDLSKQMEEECVRLFIEWQKNGGPSSGAPPPGCGGGGGSGGGGSGGGGSADIQMTQSPSSLSASVGDRVTITCQASQDVKTAVAWYQQKPGKAPKLLIYSASYRYTGVPSRFSGSGSGTDFTFTISSLQPEDIATYYCQQRYSLWRTFGQGTKLEIK | 34% |
